Measurements as given in patent US20220089723A1 (UNIVERSITY HEALTH NETWORK, published 2022).

Biological target: T1, Human LILRB3 (human, UniProt O75022 24-631)
T1 construct: whole, on cells; Endogenous receptor on primary human PBMCs and whole blood cells, not a recombinant construct; also called CD85A; ILT5
Assay: flow cytometry; human PBMCs and fresh whole blood stained with 3A3 and gated on cell subsets
Protocol: LILRB3 surface expression was measured on various hematopoietic subsets in the form of two-dimensional flow cytometry (FCM) representations called quantile contour plots (probability plots). Peripheral blood mononuclear cells (PBMCs) from a healthy human donor were stained with the LILRB3 3A3 antibody as well as antibodies specific for the indicated cell subset. FIG. 1A plots depict LILRB3 expression by gated CD3+CD4+T cells, CD3+CD8+ T cells or CD11b+ monocytes. In FIG. 1B, fresh whole blood from a healthy human donor was stained as in FIG. 1A. Plots depict LILRB3 expression by gated CD3+CD4+ T cells, CD3+CD8+ T cells, CD11b+ monocytes or CD11b+ granulocytes. Percentages of gated cells and of LILRB3+ cells within the gated population are depicted inside the plots (first and second numbers, respectively). […] Specificity of the LILRB3 staining was determined by staining all of the above cell subsets with an IgG1 isotype control antibody. Data are representative of several independent experiments utilizing different human blood samples.

T1 sequence (O75022 24-631): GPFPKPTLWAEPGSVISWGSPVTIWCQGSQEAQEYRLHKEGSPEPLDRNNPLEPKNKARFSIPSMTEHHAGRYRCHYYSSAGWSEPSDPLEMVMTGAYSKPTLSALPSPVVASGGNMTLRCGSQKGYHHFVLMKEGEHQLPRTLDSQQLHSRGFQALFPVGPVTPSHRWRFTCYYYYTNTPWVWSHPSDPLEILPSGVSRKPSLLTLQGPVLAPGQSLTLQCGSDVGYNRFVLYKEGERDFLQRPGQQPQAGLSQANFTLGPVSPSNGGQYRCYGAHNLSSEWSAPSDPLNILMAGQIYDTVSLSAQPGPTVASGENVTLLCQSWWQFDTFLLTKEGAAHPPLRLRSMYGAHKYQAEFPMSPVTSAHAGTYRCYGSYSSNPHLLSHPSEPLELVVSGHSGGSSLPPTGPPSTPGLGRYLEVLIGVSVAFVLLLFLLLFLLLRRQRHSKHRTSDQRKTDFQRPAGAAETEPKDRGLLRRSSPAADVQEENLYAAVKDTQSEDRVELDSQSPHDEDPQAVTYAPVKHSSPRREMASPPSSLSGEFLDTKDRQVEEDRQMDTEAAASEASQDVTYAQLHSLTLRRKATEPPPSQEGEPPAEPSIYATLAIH

- binding result: binds
B1: LILRB3 3A3 antibody (antibody, V domains shown)
VH: QVQLQQSRTELMKPGASVKLSCKATGYTFTGYWIEWVKQRPGHGLEWIGEILPGSTNINYNERFKGKATITADTSSNTAYMQLSSLTTEDSAIYYCARWASVVVGDYWGQGATLTVSS
VL: QIVLTQSPAIMSASLGERVTMTCTASSSVSSSYLHWYQQKPGSSPKLWIYSTSNLASGVPARFSGSGSGTSYSLTISSMEAEDAATYYCHQYHRSPPTFGGGTKLEIKR
notes: the entries also seem to hold an N-terminal leader and part of the constant region
